Experimental data reported in the supplement of paper PMC7125110.
± gives the standard error. For some assays here: Fewer inactive variants are shown than the library holds.

B1: glmS ribozyme (parent)
chain: AUAAAAGCGCCAGAACUACAGAAAUGUAGUUGACGAGGAGGAGGUUUAUCGAAUUUUCGGCGGAUGCCUCCAAA

Key:
Settings in all cases: with glucosamine-6-phosphate
[1] = variants of: B1; assay: kcat; higher = faster cleavage; RNA array
In short: (§1)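 Over ~14 h at 37 °C, tiles were imaged as glucosamine-6-phosphate (40 μM to 10 mM) in HEPES/KCl/Mg(OAc)2 buffer flowed across sequenced MiSeq chips. The chips carried barcoded ribozyme variants transcribed in situ by E. coli RNA polymerase and tracked with a hybridised Cy3 probe. After normalisation to baseline and to non-cleaving reference variants, one- or two-exponential decay fits of per-tile medians gave kobs. kcat and KM followed from weighted Michaelis–Menten fits across concentrations.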

[2] = variants of: B1; assay: KM; higher = weaker cofactor use; RNA array
In short: as §1

[3] = variants of: B1; assay: self-cleavage kobs at 640 uM GlcN6P; higher = faster cleavage; RNA array
In short: as §1

[4] = variants of: B1; assay: self-cleavage kobs at 2500 uM GlcN6P; higher = faster cleavage; RNA array
In short: as §1

[5] = variants of: B1; assay: self-cleavage kobs at 10000 uM GlcN6P; higher = faster cleavage; RNA array
In short: as §1

[6] = variants of: B1; assay: self-cleavage kobs at 160 uM GlcN6P; higher = faster cleavage; RNA array
In short: as §1

[7] = variants of: B1; assay: self-cleavage kobs at 40 uM GlcN6P; higher = faster cleavage; RNA array
In short: as §1

Row | Variant | kcat [1] [s⁻¹] | KM [2] [µM] | self-cleavage kobs at 640 uM GlcN6P [3] [s⁻¹] | self-cleavage kobs at 2500 uM GlcN6P [4] [s⁻¹] | self-cleavage kobs at 10000 uM GlcN6P [5] [s⁻¹] | self-cleavage kobs at 160 uM GlcN6P [6] [s⁻¹] | self-cleavage kobs at 40 uM GlcN6P [7] [s⁻¹]
1 | AUAAAAGCGCCAGAACUACAGAAAUGUAGUUGACGAGGAGGUGGCUUAUCGAAUUUUCGGCGGAUGCCUCCAAA | 0.000116 ± 1e-05 | 2890 ± 650 | 2.56e-05 ± 1.1e-05 | 5.1e-05 ± 1e-05 | 9.13e-05 ± 1.2e-05 |  | 
2 | AUAAAAGCGCCAGACCUACAGAAAUGUAGUUGACGAGGAGGAGGUGUAUCGAAUUUUCGGCGGAUGCCUCCAAA | 0.00166 ± 0.00022 | 3240 ± 690 | 0.000271 ± 4.6e-05 | 0.000681 ± 0.00011 | 0.00129 ± 0.00019 | 8.08e-05 ± 2.2e-05 | 
3 | AUAAAAGCGCCAGAACUACAGAAAUGUACUUGCCGAGGAGGAGGUUUAUCGAAUUUUCGGCGGAUGCCUCCAAA | < 1e-05 |  | < 1e-05 |  |  |  | 
4 | AUAAAAGCGCCAGAACUACAGAAAUGUAGUUGACGAGGAGGAGGUUUAUCGAAUUUACGGCGAAUGCCUCCAAA | < 1e-05 |  |  |  | < 1e-05 | < 1e-05 | 
5 | AUAAAAGCGUCAGAAUUACAGAAAUGUAGUUGACGAGGAGGAGGUUUAUCGAAUUUUCGGCGGAUGCCUCCAAA | 1.06e-05 ± 1.7e-06 |  |  |  |  |  | 
6 | AUAAAAGCGCCAGAACUACAGAAAUGUAGUUGACGAGGAGGAGGUGUAUCGAAUGUUCGGCGGAUGCCUCCAAA | 0.00623 ± 0.0016 | 2040 ± 690 | 0.00125 ± 0.00021 | 0.00414 ± 0.001 | 0.00533 ± 0.00091 | 0.000395 ± 8.6e-05 | 0.000153 ± 2.1e-05
7 | AUAAAAGCGCCAGAACUACAGAAAUGUAGUUGACGAGGAGGAGGUUUAUCGAAUUGUCGGCGGAUGCCGCUAAA | 4.56e-05 ± 1.5e-05 |  | 3.88e-05 ± 1.7e-05 | 5.83e-05 ± 2e-05 |  | 8.5e-05 ± 2.7e-05 | 
8 | AUAAAAGCGCCAGAACUACAGAAAUGUAGUUGACGAGGAAGAGGUUUAUCGACUUUUCGGCGGAUGCCUCCAAA | 0.00179 ± 0.0007 |  | 0.000386 ± 0.00011 | 0.000919 ± 0.0002 | 0.00217 ± 0.0008 | 0.000183 ± 5.8e-05 | 
9 | AUAAAAGCGCCAGAUCUACAGAAAUGUAGUUGACGAGGAGUAGGUUUAUCGAAUUUUCGGCGGAUGCCUCCAAA | 0.000143 ± 2.5e-05 |  | 0.000255 ± 5.3e-05 | 0.000115 ± 1.5e-05 | 0.000149 ± 1.7e-05 | 4.82e-05 ± 1.4e-05 | 
